From patent publication US9127038B2, “Kisspeptide-pentasaccharide conjugates” (Merck Sharp & Dohme Corp., priority 2011, dated 2015)
pEC50: −log10 of the molar value. Structures can show the parent of a compound that is named as a salt. Where two headings read alike, the source gives them in different places. Each block holds one molecule with its values, some of them ahead of it. Square brackets hold non-standard residues; d marks the D form. Peptide text beside a SMILES is read from it. Arg(Me) = CNC(=N)NCCC[C@H](N)C(=O)O; azaGly = NNC(=O)O

Key:
in vivo = experiment: in vivo
Procedure: The pharmacokinetics of conjugate C8 were determined after administration of 40 nmol/kg IV in male and of 200 nmol/kg SC in female Sprague-Dawley rats.

[1] = In vitro stability in human serum (LC/MS/MS); conditions: for half-life at 750 nM: human
Procedure: Test compound is added to 1.5 mL human serum in a 96-wells deepwell plate in a final concentration of 750 nM. The compound is mixed and immediately thereafter a 100 μl sample is harvested in a 96-wells 2D-tuberack (T=0 sample). The 2 D-tubes are closed with rubber tube caps and the sample plate is stored at −20° CF. in the freezer. The deepwell plate is put into an incubator which was set at humidified (95%) atmosphere at 5-7% CO2 and 37° C. for an incubation period of maximum 240 h. During this incubation period, samples of 100 μl are collected on various time intervals, dependent on the test compound used; time points 0, 1, 2, 3, 6, 24, 48, 72 h in case of Kisspeptides and 0, 3, 6, 24, 48, 72, 168, 240 h in case of kisspeptide-pentasaccharide conjugates. Sample plates are put on ice in case of sampling and stored at −20° C. until analysis by LC/MS/MS.
For LC-MS/MS analysis, the compounds are separated over an XTerra RP8 column and using a gradient mobile phase of ammonium acetate buffer and acetonitrile at a fixed column temperature. MS/MS detection is done with a triple quadrupole mass spectrometer and employing negative ion electrospray ionization. The mass spectrometer is set up to achieve a known degree of in source fragmentation, where the initially formed multiply charged negative ions lose one or more SO3 molecules. The most abundant of these secondary ions are then subjected to a common MS/MS experiment in which a single SO3 loss is monitored. The Q1 and Q3 mass filter settings for this MS/MS experiment have commonly been determined in method development. […] Internal standardization is accomplished by adding a different conjugate of approximately the same size to the bioanalytical samples.
The rate of compound loss is expressed as a half-life (plasma t^1/2). The t^1/2 for the test compound can be determined by plotting the natural logarithm (In) of the measured concentrations against time and fitting the line through all data points. The gradient of this line is the first order rate constant (k) for substrate disappearance and is determined by regression analysis. The rate constant is converted to a half-life according to the following equation: In vitro half-life(t^1/2)=−ln 2/k

human KISS-receptor = molecular target: T1, human KISS-receptor (Homo sapiens, UniProt Q969F8); experiment: NFAT-regulated luciferase reporter gene assay in CHO-k1 cells, agonist activity; type: cell-based
T1 construct: expressed in transfected cells; host or cells: CHO-k1 cells that also express mitochondrially targeted aequorin, Gα16 and an NFAT-luciferase reporter
Procedure: CHO-k1 cells were used that expressed the mitochondrially targeted aequorine and Gα16 (from Euroscreen, Brussels, Belgium), a Nuclear Factor of Activated T-cells-responsive element (NFAT) under the control of a promoter directing the expression of a firefly luciferase reporter gene (pNFAT-TALuc obtained from Clontech, Mountain View, Calif.), and the human GPR54-R Hygro(+)-hGPR54WT c4; MSD). These cells were cultured in Dulbecco's Modified Eagle Medium: Nutrient Mixture F-12 (DMEM/F12) (Invitrogen, Carlsbad, Calif.), supplemented with 10% (vol/vol) filtered bovine serum (Hyclone, Thermo Fisher Scientific, Waltham, Mass.), 100 U/ml penicillin G, 100 μg/ml streptomycin, 400 μg/ml Geneticin and 400 μg/ml Hygromycin (Invitrogen). […] Kisspeptin-10 was used as a standard. […] When the conjugates were tested in the presence of a final percentage of 20% human serum, 10 μl assay medium containing 60% human serum (Sigma-Aldrich, #H4522) was added to the wells. In the absence of human serum, 10 μl of assay medium was added. Cells were harvested and diluted to a concentration of 7.5E5 cells/ml in assay medium without 0.1% BSA. 10 μl of cell solution was added to the compound wells. After incubation for 4 hours in a humidified atmosphere at 5% CO2 and 37° C., the plate was left at room temperature for 30 minutes. Subsequently, 15 μl of Steadylite™ solution (PerkinElmer, Boston, Mass.) was added and the cells, protected from light, were allowed to lyse for 30 min at room temperature. Luminescence, indicated as relative luminescence units (RLU), was measured on an Envision Multilabel reader (PerkinElmer).

[2] = cited from earlier work
[3] = after clomiphene citrate treatment; cited from earlier work
[4] = female, Sprague-Dawley, rat, plasma, sc, 0.2 umol/kg
[5] = female, Sprague-Dawley, rat, plasma, sc, 200 nmol/kg
[6] = female, Sprague-Dawley, rat, plasma, sc, 0.6 umol/kg
[7] = male, Sprague-Dawley, rat, plasma, iv, 40 nmol/kg
[8] = absence of human serum, read-out: pEC50 (converted)
[9] = presence of 20% human serum, read-out: pEC50 serum (converted)

T1 sequence (Q969F8 whole entry): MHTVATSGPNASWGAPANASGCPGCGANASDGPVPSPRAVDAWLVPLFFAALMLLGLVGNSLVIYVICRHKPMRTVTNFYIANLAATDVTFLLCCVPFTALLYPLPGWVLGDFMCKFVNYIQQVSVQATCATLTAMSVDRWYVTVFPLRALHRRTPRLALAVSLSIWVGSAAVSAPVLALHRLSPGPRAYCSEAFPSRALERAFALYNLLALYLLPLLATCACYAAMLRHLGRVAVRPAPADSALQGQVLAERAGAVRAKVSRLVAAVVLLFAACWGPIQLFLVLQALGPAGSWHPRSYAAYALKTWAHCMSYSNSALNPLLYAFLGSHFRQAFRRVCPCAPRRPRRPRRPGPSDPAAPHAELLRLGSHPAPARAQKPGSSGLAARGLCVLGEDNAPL

SMILES: CNC(=N)NCCC[C@H](NC(=O)[C@H](CC(C)C)NC(=O)NNC(=O)[C@H](Cc1ccccc1)NC(=O)[C@@H](NC(=O)[C@H](CC(N)=O)NC(=O)[C@H](Cc1c[nH]c2ccccc12)NC(=O)[C@H](CC(N)=O)NC(=O)[C@@H](Cc1ccc(O)cc1)NC(=O)CCCCn1cc(CCC(=O)NCCOCCOCCOCCO[C@H]2[C@H](OC)[C@@H](OC)[C@@H](O[C@H]3[C@H](OC)[C@@H](OC)[C@H](O[C@H]4[C@H](OS(=O)(=O)O)[C@@H](OS(=O)(=O)O)[C@@H](O[C@H]5[C@H](OC)[C@@H](OC)[C@H](O[C@H]6[C@H](OS(=O)(=O)O)[C@@H](OS(=O)(=O)O)[C@@H](OC)O[C@@H]6COS(=O)(=O)O)O[C@H]5C(=O)O)O[C@@H]4COS(=O)(=O)O)O[C@@H]3C(=O)O)O[C@@H]2COS(=O)(=O)O)nn1)C(C)O)C(=O)N[C@@H](Cc1ccccc1)C(N)=O (some centres unmarked) [Conjugate C8]
AUCN(0-∞) IV (in vivo; 40 nmol/kg IV, male rats): 60.4 nM·kg·h/µg
AUCN(0-∞) SC (in vivo; 200 nmol/kg SC, female rats): 56.5 nM·kg·h/µg
F (in vivo; 200 nmol/kg SC, female rats): 94%
AUC(0-inf) (in vivo; [4]): 38.7 µM·h
Cmax (in vivo; [4]): 2310 nM
level at time molar at 24 h (in vivo; [4]): 490 nM
Tmax (in vivo; female, Sprague-Dawley, rat, plasma, sc, 0.2 umol/kg, Tmax, SC 0.2 μmol/kg, female rats): 2.7 h
Cmax (in vivo; [5]): 2310 nM
bioavailability (in vivo; [5]): 93.5%
Tmax (in vivo; female, Sprague-Dawley, rat, plasma, sc, 200 nmol/kg, Tmax, 200 nmol/kg SC, female rats): 2.7 h
Tmax (in vivo; female, Sprague-Dawley, rat, plasma, sc, 200 nmol/kg, tmax, following subcutaneous administration): 2.7 to 3.3 h
AUC(0-inf) (in vivo; [6]): 90.5 µM·h
Cmax (in vivo; [6]): 5180 nM
level at time molar at 24 h (in vivo; [6]): 1100 nM
Tmax (in vivo; female, Sprague-Dawley, rat, plasma, sc, 0.6 umol/kg, Tmax, SC 0.6 μmol/kg, female rats): 1.7 h
Vd (in vivo; [7]): 0.067 L/kg
clearance (in vivo; [7]): 4.8 mL/h/kg
half-life (in vivo; [7]): 11.5 h
half-life at 750 nM [1]: > 240 h
pEC50 (human KISS-receptor; pEC50, absence of human serum): 9.80
pEC50 (human KISS-receptor; pEC50 serum, presence of 20% human serum): 8.14

SMILES: CNC(=N)NCCC[C@H](NC(=O)[C@H](CC(C)C)NC(=O)NNC(=O)[C@H](Cc1ccccc1)NC(=O)[C@@H](NC(=O)[C@H](CC(N)=O)NC(=O)[C@H](Cc1c[nH]c2ccccc12)NC(=O)[C@H](CC(N)=O)NC(=O)[C@H](N)Cc1ccc(O)cc1)[C@@H](C)O)C(=O)N[C@@H](Cc1ccccc1)C(N)=O [Conjugate P29, reference compound] (H-[dY]NWNTF[azaGly]L[Arg(Me)]F-NH2)
half-life at 750 nM [1]: 5.4 h
stability (in words) [1]: not sufficiently stable
EC50 (human KISS-receptor; [8]): 0.1 nM
EC50 (human KISS-receptor; [9]): 0.0501 nM

SMILES: CCN(CC)CCOc1ccc(C(=C(Cl)c2ccccc2)c2ccccc2)cc1 [clomiphene citrate]
ovulation rates [3]: 60%-90%
pregnancy rates [3]: 20%-40%

Now from value to molecule, other results behind:

EC50 (human KISS-receptor; [8]): 1.58 nM
potency (in words) (human KISS-receptor; in words): not sufficiently potent
EC50 (human KISS-receptor; [9]): 31.6 nM
SMILES: CO[C@H]1O[C@H](COS(=O)(=O)O)[C@@H](O[C@@H]2O[C@@H](C(=O)O)[C@@H](O[C@H]3O[C@H](COS(=O)(=O)O)[C@@H](O[C@@H]4O[C@H](C(=O)O)[C@@H](O[C@H]5O[C@H](COS(=O)(=O)O)[C@@H](OCCOCCOCCOCCNC(=O)CCc6cn(CCCCC(=O)N[C@@H](Cc7ccc(O)cc7)C(=O)N[C@@H](CC(N)=O)C(=O)N[C@@H](Cc7c[nH]c8ccccc78)C(=O)N[C@@H](CC(N)=O)C(=O)N[C@@H](CO)C(=O)N[C@@H](Cc7ccccc7)C(=O)NCC(=O)N[C@@H](CC(C)C)C(=O)N[C@@H](CCCNC(=N)N)C(=O)N[C@@H](Cc7ccccc7)C(N)=O)nn6)[C@H](OC)[C@H]5OC)[C@H](OC)[C@H]4OC)[C@H](OS(=O)(=O)O)[C@H]3OS(=O)(=O)O)[C@H](OC)[C@H]2OC)[C@H](OS(=O)(=O)O)[C@H]1OS(=O)(=O)O [Conjugate C42, reference compound]
half-life at 750 nM [1]: 121 h

stability (in words) [1]: not sufficiently stable
EC50 (human KISS-receptor; [8]): 1 nM
EC50 (human KISS-receptor; [9]): 1 nM
SMILES: CC(C)C[C@H](NC(=O)CNC(=O)[C@H](Cc1ccccc1)NC(=O)[C@H](CO)NC(=O)[C@H](CC(N)=O)NC(=O)[C@H](Cc1c[nH]c2ccccc12)NC(=O)[C@H](CC(N)=O)NC(=O)[C@@H](N)Cc1ccc(O)cc1)C(=O)N[C@@H](CCCNC(=N)N)C(=O)N[C@@H](Cc1ccccc1)C(N)=O [Kiss-10, reference compound]
half-life in human plasma [2]: ~0.167 h
